Experimental data published in patent US11541126B1, “Anti-ASGR1 antibody TLR8 agonist comprising conjugates and uses thereof” (Silverback Therapeutics, Inc., priority 2020, dated 2023).
Entries after “also recorded” stand apart in the source; their conditions may differ.

What was measured:
AAV-HBV transduced mice = experiment: Viral DNA and HBsAg antigen in mouse AAV-HBV model (replicated experiment); format: in vivo
[1] = Method: Throughout the course of this experiment, weekly body weights were obtained for each animal. In addition, the animals were monitored for an increase in ALT enzyme activity as a sign of liver damage. Plasma samples from d0, d7, d21, and d35 were assayed for levels of ALT with ALT Activity Assay Kit (Sigma Chemical Co., MAK052).
HBV = experiment: AAV-HBV mouse model for chronic HBV infection: viral DNA, HBsAg, anti-HBsAg seroconversion; format: in vivo
Method: C57BL/6 mice were transduced with AAV8-HBV1.2 vector and sorted into treatment groups (n=10). Animals received 0.5 mg/dose of ASGR1-TLR8-S, 0.5 mg of unconjugated mASGR1 mAb or vehicle, sc QWx5 beginning d0 (black arrows). In FIG. 8A, dotted line is LLOQ for HBsAg ELISA. In FIG. 8B, average plasma anti-HBsAg IgG was determined by ELISA. p-values determined by T-test by comparison to vehicle group.
An in vivo mouse model for chronic HBV to examine the therapeutic effect of ASGR1-TLR8 agonists of the instant disclosure. […] Like TLR8 in humans, and in contrast to TLR7 in humans, TLR7 in mice is expressed in myeloid cells, like macrophages. Thus, for in vivo murine experiments, an anti-ASGR1-TLR7 agonist conjugate was generated as a surrogate for human anti-ASGR1-TLR8 agonist conjugates. In addition, the anti-human ASGR1 antibody 4F3 was “murinized” so as to bind to mouse ASGR1.
On day 0 animals were sorted into viral load-balanced treatment groups of 10. […] The experiment was ended on day 35. Weekly plasma samples were assessed for viral DNA and antigens, including samples from post-transduction (i.e., infection) but pre-treatment. HBV DNA in mouse plasma was isolated with QIAAMP® 96 DNA Blood Kit following the manual and quantified by qPCR. The standard curve DNA of 10^7 copies/μL was prepared by 60-fold dilution of 5 ng/μL pAAV2-HBV1.3 plasmid DNA, then serially diluted 10-fold with AE buffer from 10^7 to 10 copies/μL. A 2 μl volume from samples was added to standard qPCR assay mixtuRes. The PCR mixture and samples or plasmid DNA standard were added to 384-well optical reaction plates. PCR was run at 95° C. for 10 min for 1 cycle, at 95° C. for 15 sec, 60° C. for 1 min for 40 cycles. HBsAg plasma levels were determined by ELISA assay using HBsAg ELISA kit (Autobio) according to the manual.

[2] = defined from liver payload PK after SC doses
Text: Subcutaneous (SC) doses assessed are similar to those in FIGS. 6A and 6B. Liver payload PK was used as measure of conjugate uptake.
SC doses assessed are similar to those in FIGS. 6A and 6B. Liver payload PK was used as measure of conjugate uptake.

CD19^pos B cells = experiment: CD86 on CD19pos B cells after PBMC co-culture (flow cytometry); format: cell-based, human; conditions: co-culture of PBMC with ASGR1^pos cells, 10 nM, 24 and 48 hours
Method: FIG. 9 is a pair of graphs showing that ASGR1-TLR8 increases B cell expression of CD86, an activation marker indicative of increased antigen presentation and IgG secretion. CD86 levels on CD19^pos B cells were determined by flow cytometry after co-culture of PBMC with ASGR1^pos or ASGR1^neg cells in presence of test articles at 10 nM at 24 hours (left) and 48 hours (right). This ASGR1-TLR8 contains a mouse-human chimeric anti-ASGR1 antibody.
ASGR1-TLR8 conjugate activation increases B-cell expression of CD86, an activation marker indicating increased antigen presentation and IgG secretion. Abbreviations: monoclonal antibody (mAb), positive (pos), negative (neg), mean fluorescence intensity (MFI), hours (hrs). This ASGR1-TLR8 conjugate contains a humanized anti-ASGR1 antibody and has a DAR4.

[3] = system: B cells in human PBMC and ASGR1pos target cell co-culture; experiment: CD86 on CD19pos B cells in human PBMC and ASGR1pos target cell co-culture (FACS); format: cell-based; conditions: 10 nM, 24 or 48 hours; FIG. 9 and FIG. 11
Method: (§1) Normal human donor PBMCs were co-cultured with cell lines expressing ASGR1 (ASGR1^pos) or not (ASGR1^neg) in the presence of 10 nM of either anti-ASGR1-TLR8 conjugate, the unconjugated antibody, an anti-digoxigenin-TLR8 conjugate or no treatment. After 24 or 48 hours of incubation, cells were harvested and processed for FACS analysis (BD FACSCelesta™ Flow Cytometer) by standard procedures for washing and incubation with immune cell lineage antibodies, that included anti-CD19 antibody to identify B cells, and antibodies to detect levels of cell activation molecules, including anti-CD86 antibody.

[4] = system: NK cells, CD8+ T cells and CD4+ T cells in human PBMC and ASGR1pos target cell co-culture; experiment: IFNγ on NK cells, CD8+ and CD4+ T cells in human PBMC and ASGR1pos target cell co-culture (FACS); format: cell-based; conditions: 10 nM, 24 or 48 hours; FIG. 10
Method: as §1, with “included” for “included anti-CD19 antibody to identify B cells, and”, “anti-IFNγ” for “anti-CD86”

[5] = 0.5 mg subcutaneous once a week for 5 weeks

B1: ASGR1-TLR8-S: "The surrogate (i.e., murinized ASGR1 mAb-C (having 4F3 CDRs)-IgG2a conjugated to a TLR7 agonist Compound 4.1)" (conjugate)
heavy: EVKLVESGGGLVKPGGSLKLSCAASGFTFSSYAMSWVRQTPEKRLEWVSAISGSGGSTYYADSVKGRFTISRDNAKNTLYLQMSSLRSEDTAMYYCAKDFSSRRWYLEYWGQGTTLTVSSAKTTAPSVYPLAPVCGDTTGSSVTLGCLVKGYFPEPVTLTWNSGSLSSGVHTFPAVLQSDLYTLSSSVTVTSSTWPSQSITCNVAHPASSTKVDKKIEPRGPTIKPCPPCKCPAPNLLGGPSVFIFPPKIKDVLMISLSPIVTCVVVDVSEDDPDVQISWFVNNVEVHTAQTQTHREDYNSTLRVVSALPIQHQDWMSGKEFKCKVNNKDLPAPIERTISKPKGSVRAPQVYVLPPPEEEMTKKQVTLTCMVTDFMPEDIYVEWTNNGKTELNYKNTEPVLDSDGSYFMYSKLRVEKKNWVERNSYSCSVVHEGLHNHHTTKSFSRTPGK
light: QAVLTQEPALSVSLGQTVTLTCQGDSLRSYYASWYQQKPGQAPVLVIYGKNNRPSGVPARFSGSLIGDKAALTITGAQTEDEAIYYCNSLERIGYLSYVFGGGTKVTVLRADAAPTVSIFPPSSEQLTSGGASVVCFLNNFYPKDINVKWKIDGSERQNGVLNSWTDQDSKDSTYSMSSTLTLTKDEYERHNSYTCEATHKTSTSPIVKSFNRNEC
modifications: conjugated to TLR7 agonist Compound 4.1; Synthetic sequence mzASGR1 mAb-C Heavy Chain (VH-IgG2a); Synthetic sequence mzASGR1 mAb-C Light Chain (VL-kappa)
HBsAg antigen (AAV-HBV transduced mice; FIG. 8A): significantly lowered
viral DNA (AAV-HBV transduced mice; data not shown): significantly lowered
Body weight [1, 5]: gained weight like control animals
ALT enzyme activity ([1]; plasma d0, d7, d21, d35): no increase
HBsAg antigen in plasma (HBV; [5]): significantly lowered; also recorded: reduces
Viral DNA in plasma (HBV; [5]): significantly lowered
Anti-HBsAg seroconversion (HBV; 0.5 mg/dose sc QWx5): drives seroconversion

B2: ASGR1-S: a mouse conjugate surrogate for an ASGR1-TLR8 conjugate intended for therapeutic use in a human (conjugate)
heavy: EVKLVESGGGLVKPGGSLKLSCAASGFTFSSYAMSWVRQTPEKRLEWVSAISGSGGSTYYADSVKGRFTISRDNAKNTLYLQMSSLRSEDTAMYYCAKDFSSRRWYLEYWGQGTTLTVSSAKTTAPSVYPLAPVCGDTTGSSVTLGCLVKGYFPEPVTLTWNSGSLSSGVHTFPAVLQSDLYTLSSSVTVTSSTWPSQSITCNVAHPASSTKVDKKIEPRGPTIKPCPPCKCPAPNLLGGPSVFIFPPKIKDVLMISLSPIVTCVVVDVSEDDPDVQISWFVNNVEVHTAQTQTHREDYNSTLRVVSALPIQHQDWMSGKEFKCKVNNKDLPAPIERTISKPKGSVRAPQVYVLPPPEEEMTKKQVTLTCMVTDFMPEDIYVEWTNNGKTELNYKNTEPVLDSDGSYFMYSKLRVEKKNWVERNSYSCSVVHEGLHNHHTTKSFSRTPGK
light: QAVLTQEPALSVSLGQTVTLTCQGDSLRSYYASWYQQKPGQAPVLVIYGKNNRPSGVPARFSGSLIGDKAALTITGAQTEDEAIYYCNSLERIGYLSYVFGGGTKVTVLRADAAPTVSIFPPSSEQLTSGGASVVCFLNNFYPKDINVKWKIDGSERQNGVLNSWTDQDSKDSTYSMSSTLTLTKDEYERHNSYTCEATHKTSTSPIVKSFNRNEC
modifications: conjugated to TLR agonist Compound 4.1; Synthetic sequence mzASGR1 mAb-C Heavy Chain (VH-IgG2a); Synthetic sequence mzASGR1 mAb-C Light Chain (VL-kappa)
notes: a mouse conjugate surrogate for an ASGR1-TLR8 conjugate intended for therapeutic use in a human
Seroconversion in the AAV-HBV model (HBV; at 5 mg/kg and 10 mg/kg): observed in some animals
Target payload liver concentration [2]: approximately 100 ng/g

B3: ASGR1-TLR8: This ASGR1-TLR8 contains a mouse-human chimeric anti-ASGR1 antibody (conjugate)
heavy: EVKLVESGGGLVKPGGSLKLSCAASGFTFSSYAMSWVRQTPEKRLEWVSAISGSGGSTYYADSVKGRFTISRDNAKNTLYLQMSSLRSEDTAMYYCAKDFSSRRWYLEYWGQGTTLTVSSAKTTAPSVYPLAPVCGDTTGSSVTLGCLVKGYFPEPVTLTWNSGSLSSGVHTFPAVLQSDLYTLSSSVTVTSSTWPSQSITCNVAHPASSTKVDKKIEPRGPTIKPCPPCKCPAPNLLGGPSVFIFPPKIKDVLMISLSPIVTCVVVDVSEDDPDVQISWFVNNVEVHTAQTQTHREDYNSTLRVVSALPIQHQDWMSGKEFKCKVNNKDLPAPIERTISKPKGSVRAPQVYVLPPPEEEMTKKQVTLTCMVTDFMPEDIYVEWTNNGKTELNYKNTEPVLDSDGSYFMYSKLRVEKKNWVERNSYSCSVVHEGLHNHHTTKSFSRTPGK
light: QAVLTQEPALSVSLGQTVTLTCQGDSLRSYYASWYQQKPGQAPVLVIYGKNNRPSGVPARFSGSLIGDKAALTITGAQTEDEAIYYCNSLERIGYLSYVFGGGTKVTVLRADAAPTVSIFPPSSEQLTSGGASVVCFLNNFYPKDINVKWKIDGSERQNGVLNSWTDQDSKDSTYSMSSTLTLTKDEYERHNSYTCEATHKTSTSPIVKSFNRNEC
modifications: TLR8 agonist conjugated; Synthetic sequence mzASGR1 mAb-C Heavy Chain (VH-IgG2a); Synthetic sequence mzASGR1 mAb-C Light Chain (VL-kappa)
notes: This ASGR1-TLR8 contains a mouse-human chimeric anti-ASGR1 antibody
B cell expression of CD86 (CD19^pos B cells): increases
levels of CD86 on CD19pos cells (MFI) [3]: B cells were activated
levels of IFNγ on NK cells, CD8+ T cells and CD4+ T cells (MFI) [4]: drives an IFNγ response
